The chains are these.
B1: 26S proteasome non-ATPase regulatory subunit 10 (Mus musculus), Q9Z2X2 (parent)
chain: MEGCVSNIMICNLAYSGKLDELKERILADKSLATRTDQDSRTALHWACSAGHTEIVEFLLQLGVPVNDKDDAGWSPLHIAASAGRDEIVKALLVKGAHVNAVNQNGCTPLHYAASKNRHEIAVMLLEGGANPDAKDHYDATAMHRAAAKGNLKMVHILLFYKASTNIQDTEGNTPLHLACDEERVEEAKFLVTQGASIYIENKEEKTPLQVAKGGLGLILKRLAESEEASM
partner: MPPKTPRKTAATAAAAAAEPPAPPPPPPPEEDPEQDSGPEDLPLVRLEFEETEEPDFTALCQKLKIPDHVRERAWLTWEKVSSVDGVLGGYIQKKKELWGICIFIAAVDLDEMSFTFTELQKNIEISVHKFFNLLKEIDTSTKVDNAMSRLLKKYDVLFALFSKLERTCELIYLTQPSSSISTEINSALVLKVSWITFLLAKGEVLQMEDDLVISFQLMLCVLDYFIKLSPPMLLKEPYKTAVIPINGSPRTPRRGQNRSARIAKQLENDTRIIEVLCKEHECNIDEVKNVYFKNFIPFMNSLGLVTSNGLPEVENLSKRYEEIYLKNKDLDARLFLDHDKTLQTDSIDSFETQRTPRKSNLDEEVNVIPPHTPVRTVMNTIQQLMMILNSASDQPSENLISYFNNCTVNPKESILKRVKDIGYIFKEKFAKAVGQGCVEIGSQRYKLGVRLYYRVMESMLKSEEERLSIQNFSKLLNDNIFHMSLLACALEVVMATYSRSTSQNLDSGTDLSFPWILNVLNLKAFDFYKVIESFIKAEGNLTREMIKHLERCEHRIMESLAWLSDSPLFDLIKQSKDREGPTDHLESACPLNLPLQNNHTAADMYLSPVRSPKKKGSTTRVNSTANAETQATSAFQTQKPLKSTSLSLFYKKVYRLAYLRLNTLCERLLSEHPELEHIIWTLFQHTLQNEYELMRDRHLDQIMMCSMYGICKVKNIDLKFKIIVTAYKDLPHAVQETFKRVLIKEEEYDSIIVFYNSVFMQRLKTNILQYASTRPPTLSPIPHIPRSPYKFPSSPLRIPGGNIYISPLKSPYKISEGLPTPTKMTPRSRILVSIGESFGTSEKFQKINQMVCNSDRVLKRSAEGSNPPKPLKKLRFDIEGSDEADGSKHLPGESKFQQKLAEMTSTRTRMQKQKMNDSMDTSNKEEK

1 variant from IntAct's records for PubMed 17292836 can be followed below.

Variants of B1 are the subject of this assay. Particulars: with rb_human RB1, P06400.
Take E182A: the “effect of a mutation on the interaction” value is “disrupting interaction”.
